Results published in paper PMC10942602.

Experiments:
[1] = biological target: GFP-Nrxn3α(25b+) (rat); experiment: immunostaining of cells or tissue; co-culture (2 days) of HEK293 cells secreting myc-tagged C1ql2 or C1ql2.K262E with primary hippocampal neurons transfected with GFP-Nrxn3α(25b+); fixed, stained for myc and GFP; area of the masked HEK293 cell covered by GFP-Nrxn3α(25b+)-positive neuronal profiles; 25 cells per condition and experiment, N=3
[2] = biological target: GFP-Nrxn3α(25b+) (rat)

Sequence of GFP-Nrxn3α(25b+) (rat) (Q07310 28-1578): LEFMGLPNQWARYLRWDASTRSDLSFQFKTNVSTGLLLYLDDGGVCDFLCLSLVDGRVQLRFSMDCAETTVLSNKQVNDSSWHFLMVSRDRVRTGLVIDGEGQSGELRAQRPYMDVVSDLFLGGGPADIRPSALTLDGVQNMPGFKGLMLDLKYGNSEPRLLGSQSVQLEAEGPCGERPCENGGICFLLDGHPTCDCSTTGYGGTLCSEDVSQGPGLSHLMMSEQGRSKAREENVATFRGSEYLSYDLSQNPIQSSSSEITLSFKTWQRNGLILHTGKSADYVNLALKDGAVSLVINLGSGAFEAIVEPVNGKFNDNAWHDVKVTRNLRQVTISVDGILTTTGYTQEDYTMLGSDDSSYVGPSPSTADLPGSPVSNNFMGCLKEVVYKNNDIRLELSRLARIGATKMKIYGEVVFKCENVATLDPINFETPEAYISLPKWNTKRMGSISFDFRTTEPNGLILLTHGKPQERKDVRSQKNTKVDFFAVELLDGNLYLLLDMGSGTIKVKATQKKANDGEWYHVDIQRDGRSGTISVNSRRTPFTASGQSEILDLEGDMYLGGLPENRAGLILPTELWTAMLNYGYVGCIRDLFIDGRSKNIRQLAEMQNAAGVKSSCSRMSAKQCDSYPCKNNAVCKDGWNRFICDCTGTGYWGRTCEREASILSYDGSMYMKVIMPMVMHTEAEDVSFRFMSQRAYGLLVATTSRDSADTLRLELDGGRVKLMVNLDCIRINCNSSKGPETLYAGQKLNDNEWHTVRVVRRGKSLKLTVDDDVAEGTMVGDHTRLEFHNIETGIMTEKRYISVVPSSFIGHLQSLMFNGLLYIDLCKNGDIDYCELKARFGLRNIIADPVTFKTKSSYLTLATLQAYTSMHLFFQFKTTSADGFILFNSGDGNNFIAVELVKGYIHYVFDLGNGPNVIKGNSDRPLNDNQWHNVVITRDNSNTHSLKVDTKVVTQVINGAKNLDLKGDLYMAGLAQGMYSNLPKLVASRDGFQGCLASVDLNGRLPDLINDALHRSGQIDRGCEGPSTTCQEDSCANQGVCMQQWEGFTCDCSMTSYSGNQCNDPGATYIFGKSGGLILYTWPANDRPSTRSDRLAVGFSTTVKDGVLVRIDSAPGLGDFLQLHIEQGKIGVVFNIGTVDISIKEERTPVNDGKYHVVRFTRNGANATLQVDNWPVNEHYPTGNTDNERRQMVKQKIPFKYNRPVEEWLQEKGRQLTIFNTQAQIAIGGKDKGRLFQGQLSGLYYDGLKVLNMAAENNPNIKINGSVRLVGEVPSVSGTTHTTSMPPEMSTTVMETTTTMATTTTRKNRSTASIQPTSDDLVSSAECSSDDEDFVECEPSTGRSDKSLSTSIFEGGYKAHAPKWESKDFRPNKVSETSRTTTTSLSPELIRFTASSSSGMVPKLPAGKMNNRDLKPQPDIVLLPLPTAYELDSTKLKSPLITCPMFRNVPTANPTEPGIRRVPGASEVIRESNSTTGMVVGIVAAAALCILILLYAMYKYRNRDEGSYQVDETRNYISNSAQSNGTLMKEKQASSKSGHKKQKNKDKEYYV
Sequence of 6xHis-myc-tagged C1ql2 (Q8CFR0 22-287): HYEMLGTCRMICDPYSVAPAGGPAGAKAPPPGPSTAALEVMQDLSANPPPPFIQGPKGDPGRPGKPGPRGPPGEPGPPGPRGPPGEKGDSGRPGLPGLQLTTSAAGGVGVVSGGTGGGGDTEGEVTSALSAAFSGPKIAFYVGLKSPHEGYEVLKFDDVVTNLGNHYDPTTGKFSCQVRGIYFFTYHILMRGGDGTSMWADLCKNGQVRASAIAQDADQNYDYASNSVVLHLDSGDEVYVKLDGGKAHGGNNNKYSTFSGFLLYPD

6xHis-myc-tagged C1ql2 (from UniProt Q8CFR0 22-287) (natural protein)
surface area of HEK293 cells covered by GFP-Nrxn3α(25b+)-positive neuronal profiles [1]: 40

6xHis-myc-tagged C1ql2.K262E (from UniProt Q8CFR0 22-287) (natural protein)
vGlut1 accumulation in GFP-Nrxn3α(25b+)-expressing neurons contacting HEK293 cells expressing C1ql2.K262E (area of the HEK293 cell covered by vGlut1) [2]: 16.9
